Values joined by “and” are separate entries in the source; they are usually repeats but may differ in a detail not shown here. Equal entries are not always repeated. Where two headings read alike, the source gives them in different places.
B1: PpsR (full-length) (natural protein, Rhodobacter sphaeroides, UniProt Q3J179 1-464, looked up)
chain: MLAGGSLPSLAPDLVRDLIATAADISLLVSQEGVVREVMANPHHPSFGQLSEWEGRPLEEVLTAESVAKFRLRSEGLEPGRGSVAVELNHIDPRSFEFPIRYILHRLPADRSILMLGRDLRPIAEVQQQLVAAQLAMERDYETQREMETRYRVVLDVSRDPMVLVSMSTGRIVDLNSAAGLLLGGVRQDLLGAAIAQEFEGRRRGEFMETMTNLAATESAAPVEVLARRSQKRLLVVPRVFRAAGERLLLCQIDPADATQPVGDELSENLARLYHEGVDGIVFSDADGTIRGANEAFLNMTDSSSLAAIRGRSIADFLARGSVDLRVLIDSVRRTGQLRLYATRLTTDFAGQIAAEISATWLDDRERPLLVLVVRDTSRADTMRRPVPATGVIDEPARNVMELVGNSTLKDIVAETTDVVEKMCIETALELTRNNRVAAAEMLSLSRQSLYVKLRKFGLLNKDE
B2: PpsR ΔHTH (domain or fragment, Rhodobacter sphaeroides)
chain: LAGGSLPSLAPDLVRDLIATAADISLLVSQEGVVREVMANPHHPSFGQLSEWEGRPLEEVLTAESVAKFRLRSEGLEPGRGSVAVELNHIDPRSFEFPIRYILHRLPADRSILMLGRDLRPIAEVQQQLVAAQLAMERDYETQREMETRYRVVLDVSRDPMVLVSMSTGRIVDLNSAAGLLLGGVRQDLLGAAIAQEFEGRRRGEFMETMTNLAATESAAPVEVLARRSQKRLLVVPRVFRAAGERLLLCQIDPADATQPVGDELSENLARLYHEGVDGIVFSDADGTIRGANEAFLNMTDSSSLAAIRGRSIADFLARGSVDLRVLIDSVRRTGQLRLYATRLTTDFAGQIAAEISATWLDDRERPLLVLVVRDTSR
B3: AppA Δ399 C20S (domain or fragment, Rhodobacter sphaeroides)
chain: HDLEADVTMTGSDLVSCSYRSLAAPDLTLRDLLDIVETSQAHNARAQLTGALFYSQGVFFQWLEGRPAAVAEVMTHIQRDRRHSNVEILAEEPIAKRRFAGWHMQLSCSEADMRSLGLAESRQIVTVGRSLVADNTNIFSFDRIAAVRRFLSDVCAARTLAPDTPVEADTFALYALTEAQAGRSGRAKAVARLSDLLSTDPLGRLTEVEELLRAHAPTAADFARLFEACAERLTRALAEDRISRMQVTLAYSALQMALRRIHHLPDPQKSVGAVLVAGVPGHKPILEAALAAEMLRAVGWSTSVVHPESVAALAARLKTSRTSTLVVAPSLLEGTEQEADTLRFVSALRARTDLPGLSILVGGRLAQLPPSKLKDSGADAGFAHLALLPAALARVA

Legend:
[1] = target: the molecule itself; experiment: MST
[2] = target: the molecule itself; experiment: crystal structure
[3] = target: B1; experiment: MST
[4] = target: B1; experiment: native gel or EMSA
[5] = target: B1; experiment: native gel or EMSA; remark: listed apart in the source
[6] = target: B1; experiment: HDX-MS

B1
Kd [1]: 900 nM

B2
stoichiometry N [2]: 4 and 8

B3
Kd [3]: 1300 nM | EC50 [4]: 1400 nM | EC50 [5]: 2300 nM | Kd [6]: ~1500 nM
